{"source": "paper PMC9539395", "about": "(2022)", "binders": {"B1": {"name": "sACE2_(2).v2.4(NN)‐IgG1 (Fc fusion)", "chain": "QSTIEEQAKYFLDKFNHEAEDLFYQSSLASWNYNTNITEENVQNMNNAGDKWSAFLKEQSTTAQMYPLQEIQNLTVKLQLQALQQNGSSVLSEDKSKRLNTILNTMSTIYSTGKVCNPDNPQECLLLEPGLNEIMANSLDYNERLWAWESWRSEVGKQLRPLYEEYVVLKNEMARANHYEDYGDYWRGDYEVNGVDGYDYSRGQLIEDVEHTFEEIKPLYEHLHAYVRAKLMNAYPSYISPIGCLPAHLLGDMWGRFWTNLYSLTVPFGQKPNIDVTDAMVDQAWDAQRIFKEAEKFFVSVGLPNMTQGFWEYSMLTDPGNVQKAVCHPTAWDLGKGDFRILMCTKVTMDDFLTAHNEMGNIQYDMAYAAQPFLLRNGANEGFHEAVGEIMSLSAATPKHLKSIGLLSPDFQEDNETEINFLLKQALTIVGTLPFTYMLEKWRWMVFKGEIPKDQWMKKWWEMKREIVGVVEPVPHDETYCDPASLFHVSNDYSFIRYYTRTLYQFQFQEALCQAAKHEGPLHKCDISNSTEAGQKLFNMLRLGKSEPWTLALENVVGAKNMNVRPLLNYFEPLFTWLKDQNKNSFVGWSTDWSPYADQSIKVRISLKSALGDKAYEWNDNEMYLFRSSVAYAMRQYFLKVKNQMILFGEEDVRVANLKPRISFNFFVTAPKNVSDIIPRTEVEKAIRMSRSRINDAFRLNDNSLEFLGIQPTLG"}}, "assay_in_all_cases": "BLI", "key": {"Wuhan RBD‐8his [1]": {"biological_target": "T1, Wuhan RBD‐8his (SARS-CoV-2, UniProt P0DTC2)"}, "gamma RBD [2]": {"biological_target": "T2, gamma RBD (SARS-CoV-2, UniProt P0DTC2)"}, "Wuhan RBD‐8his [3]": {"biological_target": "T1, Wuhan RBD‐8his", "remark": "listed apart in the source"}, "gamma RBD [4]": {"biological_target": "T2, gamma RBD", "remark": "listed apart in the source"}}, "data": [{"binder": "B1", "values": [{"measurement": "koff", "setting": "Wuhan RBD‐8his [1]", "result": 0.00032, "unit": "s⁻¹"}, {"measurement": "Kd", "setting": "gamma RBD [2]", "result": 0.5, "unit": "nM"}, {"measurement": "Kd", "setting": "Wuhan RBD‐8his [3]", "result": 0.5, "unit": "nM"}, {"measurement": "koff", "setting": "gamma RBD [4]", "result": 0.00043, "unit": "s⁻¹"}]}]}
